Experimental data published in the supplement of paper PMC7125110.
± gives the standard error. For part of these data: Fewer inactive variants are shown than the library holds.

B1: glmS ribozyme (parent)
chain: AUAAAAGCGCCAGAACUACAGAAAUGUAGUUGACGAGGAGGAGGUUUAUCGAAUUUUCGGCGGAUGCCUCCAAA

What was measured:
Details in all cases: with glucosamine-6-phosphate
[1] = variants of: B1; assay: self-cleavage kobs at 40 uM GlcN6P; higher = faster cleavage; RNA array
In short: (§1)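 Glucosamine-6-phosphate, from 40 μM to 10 mM in HEPES/KCl/Mg(OAc)2 buffer, was flowed over sequenced MiSeq chips carrying barcoded ribozyme variants transcribed in situ by E. coli RNA polymerase. A hybridised Cy3 probe tracked the variants at 37 °C as tiles were imaged over ~14 h. kobs, kcat and KM were obtained by fitting normalised per-tile medians to exponential decays and then applying weighted Michaelis–Menten fits across concentrations.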

[2] = variants of: B1; assay: self-cleavage kobs at 640 uM GlcN6P; higher = faster cleavage; RNA array
In short: as §1

[3] = variants of: B1; assay: self-cleavage kobs at 10000 uM GlcN6P; higher = faster cleavage; RNA array
In short: as §1

[4] = variants of: B1; assay: self-cleavage kobs at 160 uM GlcN6P; higher = faster cleavage; RNA array
In short: as §1

[5] = variants of: B1; assay: self-cleavage kobs at 2500 uM GlcN6P; higher = faster cleavage; RNA array
In short: as §1

[6] = variants of: B1; assay: kcat; higher = faster cleavage; RNA array
In short: as §1

[7] = variants of: B1; assay: KM; higher = weaker cofactor use; RNA array
In short: as §1

## A6C G7U G35A C58U G60A
[1]
  self-cleavage kobs at 40 uM GlcN6P: < 1e-05 s⁻¹
[2]
  self-cleavage kobs at 640 uM GlcN6P: < 1e-05 s⁻¹

## C8G G41U C71U
[1]
  self-cleavage kobs at 40 uM GlcN6P: < 1e-05 s⁻¹
[3]
  self-cleavage kobs at 10000 uM GlcN6P: < 1e-05 s⁻¹

## A6C C8A
[1]
  self-cleavage kobs at 40 uM GlcN6P: < 1e-05 s⁻¹
[4]
  self-cleavage kobs at 160 uM GlcN6P: < 1e-05 s⁻¹
[2]
  self-cleavage kobs at 640 uM GlcN6P: < 1e-05 s⁻¹
[5]
  self-cleavage kobs at 2500 uM GlcN6P: < 1e-05 s⁻¹
[3]
  self-cleavage kobs at 10000 uM GlcN6P: < 1e-05 s⁻¹

## G66U C67A
[6]
  kcat: 0.00338 ± 0.00094 s⁻¹
[7]
  KM: 3020 ± 1100 µM
[1]
  self-cleavage kobs at 40 uM GlcN6P: 5.28e-05 ± 1.5e-05 s⁻¹
[4]
  self-cleavage kobs at 160 uM GlcN6P: 0.000188 ± 5.8e-05 s⁻¹
[2]
  self-cleavage kobs at 640 uM GlcN6P: 0.0005 ± 9.9e-05 s⁻¹
[5]
  self-cleavage kobs at 2500 uM GlcN6P: 0.00197 ± 0.00041 s⁻¹
[3]
  self-cleavage kobs at 10000 uM GlcN6P: 0.00241 ± 0.00063 s⁻¹

## C8A U30A A48G
[1]
  self-cleavage kobs at 40 uM GlcN6P: < 1e-05 s⁻¹
[3]
  self-cleavage kobs at 10000 uM GlcN6P: < 1e-05 s⁻¹

## C8G C16A A42U U65A
[1]
  self-cleavage kobs at 40 uM GlcN6P: < 1e-05 s⁻¹
[3]
  self-cleavage kobs at 10000 uM GlcN6P: < 1e-05 s⁻¹

## C8A G40A
[1]
  self-cleavage kobs at 40 uM GlcN6P: < 1e-05 s⁻¹
[2]
  self-cleavage kobs at 640 uM GlcN6P: < 1e-05 s⁻¹
[5]
  self-cleavage kobs at 2500 uM GlcN6P: < 1e-05 s⁻¹

## U69G C70A
[6]
  kcat: 4.72e-05 ± 1.5e-05 s⁻¹
[4]
  self-cleavage kobs at 160 uM GlcN6P: 4.55e-05 ± 1.3e-05 s⁻¹
[2]
  self-cleavage kobs at 640 uM GlcN6P: 5.13e-05 ± 9.1e-06 s⁻¹
[5]
  self-cleavage kobs at 2500 uM GlcN6P: 7.85e-05 ± 1.2e-05 s⁻¹

## G7U A33G
[1]
  self-cleavage kobs at 40 uM GlcN6P: < 1e-05 s⁻¹
[4]
  self-cleavage kobs at 160 uM GlcN6P: < 1e-05 s⁻¹
[2]
  self-cleavage kobs at 640 uM GlcN6P: < 1e-05 s⁻¹
[5]
  self-cleavage kobs at 2500 uM GlcN6P: < 1e-05 s⁻¹

## G7U G35U A39U
[1]
  self-cleavage kobs at 40 uM GlcN6P: < 1e-05 s⁻¹

## A6C G7A G40A
[1]
  self-cleavage kobs at 40 uM GlcN6P: < 1e-05 s⁻¹
[3]
  self-cleavage kobs at 10000 uM GlcN6P: < 1e-05 s⁻¹

## C8A U56A
[1]
  self-cleavage kobs at 40 uM GlcN6P: < 1e-05 s⁻¹
[4]
  self-cleavage kobs at 160 uM GlcN6P: < 1e-05 s⁻¹
[2]
  self-cleavage kobs at 640 uM GlcN6P: < 1e-05 s⁻¹
[5]
  self-cleavage kobs at 2500 uM GlcN6P: < 1e-05 s⁻¹
[3]
  self-cleavage kobs at 10000 uM GlcN6P: < 1e-05 s⁻¹

## A6C G7U A12U A15U
[1]
  self-cleavage kobs at 40 uM GlcN6P: < 1e-05 s⁻¹
[3]
  self-cleavage kobs at 10000 uM GlcN6P: < 1e-05 s⁻¹

## U69C C70U
[6]
  kcat: 0.000681 ± 0.00015 s⁻¹
[7]
  KM: 854 ± 350 µM
[1]
  self-cleavage kobs at 40 uM GlcN6P: 5.3e-05 ± 1.3e-05 s⁻¹
[4]
  self-cleavage kobs at 160 uM GlcN6P: 0.000108 ± 2.4e-05 s⁻¹
[2]
  self-cleavage kobs at 640 uM GlcN6P: 0.000254 ± 3.7e-05 s⁻¹
[5]
  self-cleavage kobs at 2500 uM GlcN6P: 0.000524 ± 7.1e-05 s⁻¹
[3]
  self-cleavage kobs at 10000 uM GlcN6P: 0.000743 ± 0.00018 s⁻¹

## A6G U56C
[1]
  self-cleavage kobs at 40 uM GlcN6P: < 1e-05 s⁻¹
[4]
  self-cleavage kobs at 160 uM GlcN6P: < 1e-05 s⁻¹
[2]
  self-cleavage kobs at 640 uM GlcN6P: < 1e-05 s⁻¹
[3]
  self-cleavage kobs at 10000 uM GlcN6P: < 1e-05 s⁻¹

## A6G G7C C16A G41U
[1]
  self-cleavage kobs at 40 uM GlcN6P: < 1e-05 s⁻¹

## A6U G13C A15U
[1]
  self-cleavage kobs at 40 uM GlcN6P: < 1e-05 s⁻¹
[3]
  self-cleavage kobs at 10000 uM GlcN6P: < 1e-05 s⁻¹

## A6G U57C C70A C71U
[1]
  self-cleavage kobs at 40 uM GlcN6P: < 1e-05 s⁻¹
[4]
  self-cleavage kobs at 160 uM GlcN6P: < 1e-05 s⁻¹

## G7A A12G
[1]
  self-cleavage kobs at 40 uM GlcN6P: < 1e-05 s⁻¹
[2]
  self-cleavage kobs at 640 uM GlcN6P: < 1e-05 s⁻¹
[5]
  self-cleavage kobs at 2500 uM GlcN6P: < 1e-05 s⁻¹
[3]
  self-cleavage kobs at 10000 uM GlcN6P: < 1e-05 s⁻¹

## G9U A48C C50G
[7]
  KM: 92.6 ± 7.4 µM

## A6U A39C
[1]
  self-cleavage kobs at 40 uM GlcN6P: < 1e-05 s⁻¹

## C8A A15G
[1]
  self-cleavage kobs at 40 uM GlcN6P: < 1e-05 s⁻¹
[4]
  self-cleavage kobs at 160 uM GlcN6P: < 1e-05 s⁻¹
[2]
  self-cleavage kobs at 640 uM GlcN6P: < 1e-05 s⁻¹
[5]
  self-cleavage kobs at 2500 uM GlcN6P: < 1e-05 s⁻¹
[3]
  self-cleavage kobs at 10000 uM GlcN6P: < 1e-05 s⁻¹

## C8A A15C
[1]
  self-cleavage kobs at 40 uM GlcN6P: < 1e-05 s⁻¹
[4]
  self-cleavage kobs at 160 uM GlcN6P: < 1e-05 s⁻¹
[2]
  self-cleavage kobs at 640 uM GlcN6P: < 1e-05 s⁻¹
[5]
  self-cleavage kobs at 2500 uM GlcN6P: < 1e-05 s⁻¹

## U65G C68A
[6]
  kcat: 6.34e-05 ± 1e-06 s⁻¹
[7]
  KM: 501 ± 50 µM
[5]
  self-cleavage kobs at 2500 uM GlcN6P: 5.3e-05 ± 1.2e-05 s⁻¹
[3]
  self-cleavage kobs at 10000 uM GlcN6P: 6.04e-05 ± 9.2e-06 s⁻¹

## C68U
[6]
  kcat: 0.00795 ± 0.003 s⁻¹
[7]
  KM: 2930 ± 1200 µM
[1]
  self-cleavage kobs at 40 uM GlcN6P: 0.000113 ± 1.6e-06 s⁻¹
[4]
  self-cleavage kobs at 160 uM GlcN6P: 0.000316 ± 1.2e-05 s⁻¹
[2]
  self-cleavage kobs at 640 uM GlcN6P: 0.0015 ± 6.4e-05 s⁻¹
[5]
  self-cleavage kobs at 2500 uM GlcN6P: 0.00371 ± 0.00012 s⁻¹

## G7U U46C C70G
[1]
  self-cleavage kobs at 40 uM GlcN6P: < 1e-05 s⁻¹
[5]
  self-cleavage kobs at 2500 uM GlcN6P: < 1e-05 s⁻¹
[3]
  self-cleavage kobs at 10000 uM GlcN6P: < 1e-05 s⁻¹

## C8A G43U
[1]
  self-cleavage kobs at 40 uM GlcN6P: < 1e-05 s⁻¹
[5]
  self-cleavage kobs at 2500 uM GlcN6P: < 1e-05 s⁻¹
[3]
  self-cleavage kobs at 10000 uM GlcN6P: < 1e-05 s⁻¹

## G66U C68A
[6]
  kcat: 6.39e-05 ± 1.2e-05 s⁻¹
[4]
  self-cleavage kobs at 160 uM GlcN6P: 3.61e-05 ± 1.6e-05 s⁻¹
[2]
  self-cleavage kobs at 640 uM GlcN6P: 9.21e-05 ± 2.2e-05 s⁻¹
[5]
  self-cleavage kobs at 2500 uM GlcN6P: 5.77e-05 ± 8.7e-06 s⁻¹

## A6C G9U U47G
[1]
  self-cleavage kobs at 40 uM GlcN6P: < 1e-05 s⁻¹
[5]
  self-cleavage kobs at 2500 uM GlcN6P: < 1e-05 s⁻¹
[3]
  self-cleavage kobs at 10000 uM GlcN6P: < 1e-05 s⁻¹

## A6C C16G C71A
[1]
  self-cleavage kobs at 40 uM GlcN6P: < 1e-05 s⁻¹

## A6U A39U G40A
[1]
  self-cleavage kobs at 40 uM GlcN6P: < 1e-05 s⁻¹

## G7U G35C U55G A64C
[1]
  self-cleavage kobs at 40 uM GlcN6P: < 1e-05 s⁻¹

## U2C C11U G40A U45G
[1]
  self-cleavage kobs at 40 uM GlcN6P: < 1e-05 s⁻¹

## A6C A14C U45G U57C
[1]
  self-cleavage kobs at 40 uM GlcN6P: < 1e-05 s⁻¹
[3]
  self-cleavage kobs at 10000 uM GlcN6P: < 1e-05 s⁻¹

## G7C A42G
[1]
  self-cleavage kobs at 40 uM GlcN6P: < 1e-05 s⁻¹
[4]
  self-cleavage kobs at 160 uM GlcN6P: < 1e-05 s⁻¹
[2]
  self-cleavage kobs at 640 uM GlcN6P: < 1e-05 s⁻¹
[5]
  self-cleavage kobs at 2500 uM GlcN6P: < 1e-05 s⁻¹
[3]
  self-cleavage kobs at 10000 uM GlcN6P: < 1e-05 s⁻¹

## G7C G59C
[1]
  self-cleavage kobs at 40 uM GlcN6P: < 1e-05 s⁻¹
[4]
  self-cleavage kobs at 160 uM GlcN6P: < 1e-05 s⁻¹
[2]
  self-cleavage kobs at 640 uM GlcN6P: < 1e-05 s⁻¹
[5]
  self-cleavage kobs at 2500 uM GlcN6P: < 1e-05 s⁻¹
[3]
  self-cleavage kobs at 10000 uM GlcN6P: < 1e-05 s⁻¹

## U65C C68G
[7]
  KM: 418 ± 130 µM

## C8A U57A G63A
[1]
  self-cleavage kobs at 40 uM GlcN6P: < 1e-05 s⁻¹
[5]
  self-cleavage kobs at 2500 uM GlcN6P: < 1e-05 s⁻¹

## G66C C68U
[6]
  kcat: 0.00021 ± 1.1e-05 s⁻¹
[7]
  KM: 1890 ± 220 µM
[2]
  self-cleavage kobs at 640 uM GlcN6P: 5.11e-05 ± 1e-05 s⁻¹
[5]
  self-cleavage kobs at 2500 uM GlcN6P: 0.000132 ± 2.7e-05 s⁻¹
[3]
  self-cleavage kobs at 10000 uM GlcN6P: 0.000173 ± 2.3e-05 s⁻¹

## C8A G29A G51U
[1]
  self-cleavage kobs at 40 uM GlcN6P: < 1e-05 s⁻¹
[3]
  self-cleavage kobs at 10000 uM GlcN6P: < 1e-05 s⁻¹

## A6G G29C G51A
[1]
  self-cleavage kobs at 40 uM GlcN6P: < 1e-05 s⁻¹
[5]
  self-cleavage kobs at 2500 uM GlcN6P: < 1e-05 s⁻¹
[3]
  self-cleavage kobs at 10000 uM GlcN6P: < 1e-05 s⁻¹

## A6U G43A U45G U57A G59U
[1]
  self-cleavage kobs at 40 uM GlcN6P: < 1e-05 s⁻¹
[3]
  self-cleavage kobs at 10000 uM GlcN6P: < 1e-05 s⁻¹

## A6C G40C
[1]
  self-cleavage kobs at 40 uM GlcN6P: < 1e-05 s⁻¹
[2]
  self-cleavage kobs at 640 uM GlcN6P: < 1e-05 s⁻¹
[5]
  self-cleavage kobs at 2500 uM GlcN6P: < 1e-05 s⁻¹
